Consider five substances from PMC10894068.

Targets include USP37(700-851) (human) (UniProt Q86T82); AN13A(479-594) (human); UIMC1(76-128) (human) (UniProt Q96RL1).
Common to all, as to assay: BLI
On the technique in general: BLI is a label-free optical method that tracks binding on a fibre tip over time.

Sequence of UniProt Q86T82 (Q86T82 700-851): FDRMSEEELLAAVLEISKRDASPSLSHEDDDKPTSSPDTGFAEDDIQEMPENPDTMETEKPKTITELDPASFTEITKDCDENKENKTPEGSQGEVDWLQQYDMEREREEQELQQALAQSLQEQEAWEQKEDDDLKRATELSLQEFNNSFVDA
Sequence of UniProt Q96RL1 (Q96RL1 76-128): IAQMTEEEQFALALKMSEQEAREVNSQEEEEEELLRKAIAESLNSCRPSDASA

The Kd is the concentration at which binding is half-saturated. The low end stands for tighter binding, the high end for weaker binding. As to “K11-diUb (from UniProt P0CG47 1-76) (complex)”, the Kd is 8890 nM with USP37(700-851) (human), 1280 nM in the test with AN13A(479-594) (human) and 2920 nM with UIMC1(76-128) (human).

Turning to “K11/K48-triUb-(1,0) (triUb-NC(1,0)) (from UniProt P0CG47 1-75; P0CG47 1-76; P0CG47 1-76) (complex)”, the equilibrium dissociation constant (Kd) with AN13A(479-594) (human) was 7830 nM.

“K11/K63-triUb-(1,0) (triUb-NC(1,0)) (from UniProt P0CG47 1-75; P0CG47 1-76; P0CG47 1-76) (complex)”: the values for the Kd in the test with USP37(700-851) (human), with AN13A(479-594) (human) and in the test with UIMC1(76-128) (human) were 3360 nM, 430 nM and 1040 nM, respectively.

As for “K63-diUb containing a native linkage (from UniProt P0CG47 1-76) (complex)”, the figures for the Kd in the test with USP37(700-851) (human), in the test with AN13A(479-594) (human) and with UIMC1(76-128) (human) were 4970 nM, 250 nM and 2170 nM, respectively.

“K63/K48-triUb-(1,0) (triUb-NC(1,0)) (from UniProt P0CG47 1-75; P0CG47 1-76; P0CG47 1-76) (complex)”: the Kd in the test with USP37(700-851) (human) came out at 2710 nM; with AN13A(479-594) (human), 740 nM; with UIMC1(76-128) (human), 2430 nM.
